Assays:
[1] = system: primary human hepatocytes; assay: Expression and assembly of RiboMab after lipofection of primary human hepatocytes (ELISA, Western Blot); assay type: cell-based; conditions: 48 hours post lipofection
Protocol: (Left) ELISA analyses of RiboMab01 concentrations 48 hours post transfection. (Right) Western Blot analysis of cell culture supernatant from indicated lipofections. Recombinant purified IMAB362 served as reference for Western Blot analysis. Analysis was performed under non-reducing conditions and with HRP-conjugated anti-human antibodies. A mixture of Fcγ-fragment specific and anti-kappa light chain specific antibodies was used for detection of full length IgG, free heavy (HC) and free light chains (LC). Supernatant of untransfected primary human hepatocytes served as mock control. […] RiboMab01 concentration determined via ELISA 48 hours post transfection are shown. Error bars are standard errors of the mean (n=3).
Assembly of full IgG after RNA transfection of hepatocytes.

CHO-K1 cells = assay: Expression and assembly of RiboMab after lipofection of CHO-K1 cells (ELISA); assay type: cell-based, Chinese hamster; conditions: 48 hours post lipofection
CLDN-18.2 = biological target: T1, CLDN-18.2 (Homo sapiens, UniProt P56856); assay: Flow cytometric binding assay on CLDN-18.2+ HEK293 transfectants; conditions: CHO-K1 supernatant on CLDN-18.2+ HEK293 transfectants
T1 construct: expressed in transfected cells; host or cells: HEK293

[2] = system: CLDN-18.2+ NUG-C4 transfectants; assay: In vitro ADCC assay (luciferase-based); assay type: cell-based, human; conditions: for ADCC, cellular cytotoxicity: control cells MDA-MB-231, human PBMCs, E:T 30:1
Protocol: (§1) RiboMab01-containing cell culture supernatant from CHO-K1 cells lipofected with RB_RMAB01 was subjected to (Panel A) ADCC and (Panel B) CDC assays. […] Human PBMCs of three different healthy donors were utilized as effector cells (E:T ratio 30:1). Target or control and effector cells were incubated for 48 hours with the indicated RiboMab01 and IMAB362 reference protein concentrations. Specific cell lysis as determined in a luciferase-based assay is shown. […] Target and control cells were incubated with human serum and RiboMab01 concentrations as indicated for 2 hours. CDC determined in a luciferase-based assay is shown. Error bars are standard errors of the mean (n=3).
(§2) Mode of action analysis: Antibody-dependent cellular cytotoxicity (ADCC) and complement-dependent cytotoxicity (CDC) in vitro. […] To simulate in vivo conditions, human PBMCs from three different healthy donors were used as effector cells in ADCC assays in an effector to target (E:T) ratio of 30:1 and human serum (e.g., commercially available human serum) was used as a source of complement in CDC assays.

[3] = system: CLDN-18.2+ CHO-K1 transfectants; assay: In vitro CDC assay (luciferase-based); assay type: cell-based; conditions: human serum, 2 hours, control CLDN-18.2-negative CHO-K1
Protocol: as §1, §2

[4] = system: CLDN-18.2+ NCI-N87 xenograft tumors; assay: CLDN-18.2+ human gastric carcinoma xenograft tumor model; assay type: in vivo, mice; conditions: IV injections of 1-30 μg RB_RMAB01 on test days 15, 22, 29, 36, 43 and 50
Protocol: Median tumor growth of treatment and control groups is shown. Dotted lines indicate injections. Significance was calculated by Two-way ANOVA. Ns indicates not significant.

[5] = Single dose PK study in mice (ELISA); assay type: in vivo, Balb/cJRj mice; conditions: single IV dose
Protocol: Balb/cJRj mice received a single IV injection of 1 μg (0.040 mg/kg), 3 μg (˜0.10 mg/kg), 10 μg (˜0.40 mg/kg) or 30 μg (˜1.20 mg/kg) RB_RMAB01 drug product and […] IMAB362 reference protein. Plasma was sampled 6, 24, 96, 168, 264, 336 and 504 hours post administration. RiboMab01 concentrations in plasma measured via ELISA are shown. Error bars are standard errors of the mean (n=3).

[6] = Single dose PK study in rats (ELISA); assay type: in vivo, RjHan:Wister rats; conditions: single IV dose, post administration
Protocol: RjHan:Wister rats received a single IV injection of 0.04, 0.10, 0.40 or 1.20 mg/kg of RB_RMAB01 and 3.60 mg/kg of IMAB362 reference protein. Plasma was sampled 2, 6, 8, 10, 22, 24, 27, 30, 48, 72, 96, 168, 216, 264 and 336 hours post administration. RiboMab01 concentrations in plasma measured via ELISA are shown. Error bars are standard errors of the mean (n=3).

[7] = Repetitive dose PK study in mice (ELISA); assay type: in vivo, Balb/cJRj mice; conditions: five weekly IV doses
Protocol: Balb/cJRj mice received IV injections of 1 μg (˜0.04 mg/kg), 3 μg (˜0.10 mg/kg), 10 μg (˜0.40 mg/kg) or 30 μg (˜1.20 mg/kg) RB_RMAB01 and 80 μg (˜3.20 mg/kg) IMAB362 reference protein at test days 1, 8, 15, 21 and 29. Plasma was sampled 24 hours pre- and 24 hours post-dosing. RiboMab01 concentrations in plasma measured via ELISA are shown. Dotted lines indicate injections. Error bars are standard errors of the mean (n=3).

[8] = Repetitive dose PK study in NHP (ELISA); assay type: in vivo, Cynomolgus monkey
Protocol: NHP received IV injections of 0.1, 0.4 or 1.6 mg/kg RB_RMAB01 at test days 1, 8 and […] was sampled 6, 24, 48, 72, 96 and 168 hours post 1st and 3rd dosing and 48, 72 and 168 hours post 2nd dosing as well as 264, 336 and 504 hours post 3rd dosing. RiboMab01 concentrations in plasma measured via ELISA are shown. Error bars are standard errors of the mean (n=3).
FIG. 14 is a graph showing dose-exposure correlation of RB_RMAB01 in cynomolgus monkey at tmax. Cynomolgus monkeys (n=3) received IV injections of 0.1, 0.4 or 1.6 mg/kg RB_RMAB01. Dose-dependent RiboMab01 concentrations (mean, n=3) in plasma measured via ELISA at Cmax are depicted. A green line indicates a dose that can be administered to a human subject and its corresponding anticipated serum concentration.
Treatment groups received three IV bolus injections of either 0.1 mg/kg, 0.4 mg/kg or 1.6 mg/kg at weekly intervals. As controls, saline or empty LNPs were administered likewise. Serum was sampled 6, 24, 48, 72, 96 and 168 hours post 1st and 3rd dosing and 48, 72 and 168 hours post 2nd dosing as well as 264, 336 and 504 hours post 3rd dosing.

## CLDN-18.2-targeting RiboMab: CLDN-18.2-targeting IgG antibody (IMAB362 delivered as ribonucleic acid) expressed from mRNAs encoding heavy and light chain
[1]
  expression and assembly of full IgG in cell supernatant: Fully assembled
[1]; listed as RiboMab01
  expression and assembly of full IgG in cell supernatant: expressed
CHO-K1 cells
  expression and assembly of full IgG in cell supernatant: Fully assembled
CHO-K1 cells; listed as RiboMab01
  expression and assembly of full IgG in cell supernatant: expressed
CLDN-18.2
  binding to CLDN-18.2 polypeptide: bound preferentially
CLDN-18.2; listed as RiboMab01
  binding to CLDN-18.2 polypeptide: binds target specific to CLDN-18.2
[2]
  ADCC, cellular cytotoxicity: target specific and dose-dependent cellular cytotoxicity comparable to the reference protein IMAB362
[2]; listed as RiboMab01
  ADCC, cellular cytotoxicity: high target specific cell cytotoxicity
[2]; human PBMCs from three donors, E:T 30:1, 48 hours
  ADCC EC50: 0.01 to 0.127 µg/mL
[3]
  CDC, cellular cytotoxicity: target specific and dose-dependent cellular cytotoxicity comparable to the reference protein IMAB362
[3]; listed as RiboMab01
  CDC, cellular cytotoxicity: high target specific cell cytotoxicity
[4]
  tumor growth inhibition in vivo (FIG. 6): tumor growth inhibition
[5]
  time RiboMab detectable post administration: up to 504 hours
[5]; listed as CLDN-18.2-targeting antibody agent
  time RiboMab detectable post administration: up to 504 hours post dosing.
[6]
  time of peak concentration: 24 h
[7]; 30 μg, 24 hours post-dosing
  peak plasma concentration of RiboMab: ≤ 1000 µg/mL
[7]
  RiboMab levels on weekly administration: Sustained CLDN-18.2-targeting RiboMab
[8]; NHP No. 14, 1.6 mg/kg, 48 hours after the 3rd dosing
  RiboMab serum concentration, highest determined: 232 µg/mL
[8]; between 48-72 hours post administration
  Cmax compared with IMAB362: notably lower Cmax than IMAB362
[8]; dose-exposure correlation in cynomolgus monkey, FIG. 14
  tmax: 48 h
[8]; highest dose 1.6 mg/kg, 48-72 hours post 3rd administration
  peak serum concentration of RiboMab: 231.7 µg/mL
[8]; post 1st dosing
  time RiboMab detectable (termination of the study): 840 h
[8]; three weekly IV doses
  expression on weekly administration: sustainable

— patent US20240043527A1 (BioNTech SE, priority 2020, published 2024)
